For test [1], the system named is SIM-A9 and HMC3 microglia. Nature of the test: RT-qPCR for microglia marker expression. It is filed as cell-based, human and mouse. The note with it: TFPI2 recombinant protein 20 ng/ml. How it is done: Cells were pelleted, and RNA was isolated with the RNeasy Mini Kit (Qiagen, #74106). RNA was quantified by NanoDrop spectrophotometers and then reverse-transcribed into cDNA by using the All-In-One 5×RT MasterMix (Applied Biological Materials, #G592) in T00 Thermal Cycler (Bio-Rad). RT-qPCR was performed using SYBR Green PCR Master Mix (Bio-Rad, #1725275) in CFX Connect Real-Time PCR Detection System (Bio-Rad). The expression of each gene was normalized to housekeeping genes.

The subject of test [2] is PrhMG, HMC3 and SIM-A9 microglia. The test is described as follows: Transwell migration assay of microglia. It is filed as cell-based, human and mouse. The note with it: TFPI2 recombinant protein 20 ng/ml. The procedure: For transwell migration assay, HMC3 microglia, SIM-A9 microglia, and PrhMG were suspended in serum-free culture medium and seeded into transwell 24-well plates with permeable polycarbonate membrane inserts (5.0 μm, Corning, #07-200-149). GSC conditioned media (CM), or basal cell culture medium with TFPI2 recombinant protein (BioVision, #7481-10) were added to the remaining receiver wells. The STAT6 inhibitor AS151749 (Selleck Chemicals, #S8685) was used to study the role of STAT6 in microglia migration. The CD51 inhibitor MK-0429 (MedChemExpress, #HY-15102) was used to study the role of CD51 in TFPI2-induced microglia migration. After 10 hrs, the migrated microglia were fixed and stained with crystal violet (Sigma, #C-3886). The number of transferred cells was counted using ImageJ (NIH, Bethesda, […]).

Test [3] has as its system SIM-A9, HMC3 microglia and PrhMG. The test is described as follows: Flow cytometry for CD206 and ARG1 (microglia immunosuppressive polarization). It is filed as cell-based, human and mouse. The following applies: TFPI2 recombinant protein 20 ng/ml. How it is done: For membrane protein staining, the single-cell suspensions were washed with PBS and then incubated with fixable viability dye (Invitrogen, #5211229035) on ice for 10 min. Following washing with PBS, cells were incubated with the anti-CD16/CD32 cocktail (BioLegend, #103132) in 2% BSA PBS to block Fc receptors for 30 min on ice. Different antibody combinations, including Percp/Cy5.5 anti-mouse CD45 (BioLegend, #103132), AF488 anti-mouse CD3 (BioLegend, #100210), BV421 anti-mouse CX3CR1 (BD Bioscience, #567531), BUV395 anti-mouse CD4 (BD Bioscience, #740208), BV711 anti-mouse CD8 (BioLegend, #100747), PE/Cy7 anti-mouse/human CD11b (BioLegend, #101216), PE anti-mouse CD68 (BD Bioscience, #566386), PE anti-mouse PD1 (BioLegend, #135205), AF647 anti-mouse CD206 (BD Bioscience, #565250), AF647 anti-human CD206 (BioLegend, #321116), PE anti-human CD69 (BioLegend, #310906), PE/Cy7 anti-mouse CD69 (BioLegend, #104512), and BV650 anti-human HLA-DR (BioLegend, #307650) were added to cell suspensions for 30 min on ice. […] Samples were read in BD FACSymphony flow cytometer and analyzed in FlowJo v10.8.1.
Intracellular protein staining was performed separately or followed by cell surface marker staining. […] Then cell suspensions were rewashed in permeabilization buffer and read in BD FACSymphony flow cytometer.

Test [4] has as its target T1, CD51 (integrin alpha V, ITGAV) on human microglia (HMC3 cell line, primary human microglia PrhMG) (human, UniProt P06756 31-1048).
T1 construct: whole, on cells; Endogenous protein of human microglia; also called Integrin aV/CD51
Nature of the test: IP-MS: membrane proteins of PrhMG incubated with TFPI2 recombinant protein, immunoprecipitated with TFPI2 antibody, LC-MS; CD51 is one of the enriched membrane protein candidates. The procedure: Permeabilized cells were centrifuged for 15 min at 16,000 g to remove the supernatant containing cytosolic proteins. The cell pellets were then incubated with 0.5 ml solubilization buffer at 4° C. for 30 min with constant mixing. Solubilized membrane and membrane-associated proteins were isolated by centrifuging at 16,000 g for 15 min at 4° C. Extracted membrane-associated proteins were proceeded for IP-MS pull-down assay. A total of […] cell membrane lysate was incubated with […] TFPI2 antibody (Abcam, #ab186747) or IgG control (Cell Signaling Technology, #2729) for 12 hrs with gentle rotation at 4° C. […] Protein A/G PLUS-Agarose (#sc-2003, Santa Cruz Biotechnology) were mixed with each sample on ice. The lysate bead mixture was incubated at 4° C. under rotary agitation for 4 hrs. The tubes were centrifuged to remove supernatant. The beads were then washed in lysis buffer three times to remove non-specific binding. After removing wash buffer, the complex was washed with pre-urea wash buffer (50 mM Tris pH 8.5, 1 mM EGTA, 75 mM KCl) to remove all residual supernatant. […] IP pulled-down samples were analyzed by LC-MS/MS using a Dionex UltiMate 3000 Rapid Separation nanoLC coupled to the Orbitrap Elite Mass Spectrometer (Thermo Fisher Scientific Inc, San Jose, CA). […]

The target of the next test is HMC3 microglia. Nature of the test: Human phospho-kinase antibody array. It is filed as cell-based. The note with it: 20 ng/ml TFPI2 recombinant protein. The procedure: After starvation for 24 hrs followed by TFPI2 recombinant protein treatment for 1 hr, HMC3 cell lysate was prepared using a lysis buffer with […]. Phosphorylation profiles of kinases were determined using Proteome Profiler Human Phospho-Kinase Array Kit (Bio-Techne, #ARY003C) as the instruction manual. Signal was detected under ChemiDoc Touch Imaging System (Bio-Rad).

These results are taken from patent US20250188457A1, “COMPOSITIONS AND METHODS FOR THE TREATMENT OF GLIOBLASTOMA BY INHIBITION OF THE TFPI2-CD51-STAT6 SIGNALING AXIS” (Northwestern University, priority 2023, published 2025).

T1 sequence (P06756 31-1048): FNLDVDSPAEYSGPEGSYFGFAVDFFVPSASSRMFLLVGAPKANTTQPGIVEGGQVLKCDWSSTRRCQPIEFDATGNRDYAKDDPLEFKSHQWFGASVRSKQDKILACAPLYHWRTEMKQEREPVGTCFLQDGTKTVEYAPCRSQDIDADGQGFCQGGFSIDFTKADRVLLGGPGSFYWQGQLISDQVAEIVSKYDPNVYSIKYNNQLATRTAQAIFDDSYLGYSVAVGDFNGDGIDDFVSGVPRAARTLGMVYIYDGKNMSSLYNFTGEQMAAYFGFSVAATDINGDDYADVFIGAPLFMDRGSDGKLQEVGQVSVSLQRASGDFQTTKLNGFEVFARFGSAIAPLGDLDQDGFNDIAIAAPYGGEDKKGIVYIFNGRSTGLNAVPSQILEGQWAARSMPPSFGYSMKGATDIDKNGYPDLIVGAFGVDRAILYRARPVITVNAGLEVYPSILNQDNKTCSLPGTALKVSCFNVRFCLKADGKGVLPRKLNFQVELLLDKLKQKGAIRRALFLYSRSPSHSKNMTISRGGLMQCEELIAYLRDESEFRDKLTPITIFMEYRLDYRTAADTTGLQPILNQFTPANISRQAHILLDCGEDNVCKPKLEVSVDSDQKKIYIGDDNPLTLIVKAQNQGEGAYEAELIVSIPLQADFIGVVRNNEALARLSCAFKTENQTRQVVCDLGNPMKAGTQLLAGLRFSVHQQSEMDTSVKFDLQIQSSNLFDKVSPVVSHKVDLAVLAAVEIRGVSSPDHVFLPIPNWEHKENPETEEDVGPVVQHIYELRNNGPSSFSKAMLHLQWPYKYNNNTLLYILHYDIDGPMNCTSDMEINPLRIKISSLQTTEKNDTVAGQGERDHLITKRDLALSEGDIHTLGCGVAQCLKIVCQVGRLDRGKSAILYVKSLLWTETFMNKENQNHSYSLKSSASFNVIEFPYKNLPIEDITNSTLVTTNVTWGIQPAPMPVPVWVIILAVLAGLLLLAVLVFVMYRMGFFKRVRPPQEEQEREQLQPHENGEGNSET

As to `NC(=O)c1cnc(NCCc2ccc(O)c(Cl)c2)nc1NCc1ccccc1` [AS1517499], the “TFPI2-induced suppression of immunostimulatory microglia markers (MIF, IL23, CXCL11, IL6, TNFA, LFNG, HLA-DR)” value in test [1] (AS1517499 25 nM) was “countered”. The “TFPI2-induced transwell migration of human and mouse microglia” value in test [2] (AS1517499 at indicated concentrations) is reported as “suppressed”. For the same molecule, the “TFPI2-induced increase of immunosuppressive microglia (CD206 and ARG1 expression)” value in test [3] (mouse and human microglia, AS1517499 25 nM) was “negated”.

B1: TFPI2 recombinant protein (tissue factor pathway inhibitor 2; BioVision, #7481-10) (ligand, UniProt P48307 23-235, looked up)
chain: DAAQEPTGNNAEICLLPLDYGPCRALLLRYYYDRYTQSCRQFLYGGCEGNANNFYTWEACDDACWRIEKVPKVCRLQVSVDDQCEGSTEKYFFNLSSMTCEKFFSGGCHRNRIENRFPDEATCMGFCAPKKIPSFCYSPKDEGLCSANVTRYYFNPRYRTCDAFTYTGCGGNDNNFVSREDCKRACAKALKKKKKMPKLRFASRIRKIRKKQF
notes: Bought recombinant protein added to microglia at 20 ng/ml; also called recombinant TFPI2; secreted TFPI2
Turning to B1, the “fold change in TFPI2 IP group versus control IgG group” value in test [4] was at least 2 fold. Moreover, the “expression of immunostimulatory microglia markers (RT-qPCR)” value in test [1] is given as “suppressed”. The “migration of microglia (SIM-A9, HMC3, PrhMG)” value in test [2] was “dramatically increased”. The “kinases STAT6 and AKT in phospho-kinase array” value on HMC3 microglia is on record as “activated”. The “immunosuppressive microglia (CD206 and ARG1 expression)” value in test [3] is recorded as “increased”.
